In patent publication US20230227567A1 (SELVAX, published 2023):

How the values were obtained:
[1] = biological target: T1, recombinant human CD40 extracellular domain with a C-terminal human IgG1 Fc domain and 6His tag (BioLegend) (human); assay: SPR Biacore T200, SVX-3001 amine-coupled to CM5, CD40-Fc analyte, 1:1 model; value 3
T1 construct: Bought reagent; also called CD40-Fc
Procedure: (§1) Method: Kinetic analysis by surface plasmon resonance (SPR) was carried out using the Biacore T200 (GE Healthcare). HBS-EP+ buffer was used as running buffer throughout.
(§2) Target immobilisation level: 600 RU. Wash solution: Ethanolamine.
(§3) Injection parameters for the sample were contact time: 120 seconds, flow rate: 30 μI/min, dissociation time: 300 seconds. Injection parameters for regeneration were contact time: 30 seconds, flow rate: 30 μI/min, stabilisation period: 0 seconds. Regeneration solution was either 10 mM glycine-HCl buffer pH 1.5 or 50 mM NaOH. The concentrations of CD40-His and CD40-Fc used for the kinetic analysis were […]. The model 1:1 binding was used for curve fitting.

[2] = biological target: T1, recombinant human CD40 extracellular …; assay: SPR Biacore T200, SVX-3001 amine-coupled to CM5, CD40-Fc analyte, 1:1 model; value 1
Procedure: as §1, §2, §3

[3] = biological target: T2, CD40 expressed on the surface of human peripheral blood mononuclear cells (human, UniProt P25942 21-277); assay: flow cytometry on human PBMC
T2 construct: Native CD40 on primary human cells (PBMC, B cells, monocyte-derived dendritic cells); also called native CD40 protein; CD40 on the surface of B cells
T2 sequence (P25942 21-277 limits assumed): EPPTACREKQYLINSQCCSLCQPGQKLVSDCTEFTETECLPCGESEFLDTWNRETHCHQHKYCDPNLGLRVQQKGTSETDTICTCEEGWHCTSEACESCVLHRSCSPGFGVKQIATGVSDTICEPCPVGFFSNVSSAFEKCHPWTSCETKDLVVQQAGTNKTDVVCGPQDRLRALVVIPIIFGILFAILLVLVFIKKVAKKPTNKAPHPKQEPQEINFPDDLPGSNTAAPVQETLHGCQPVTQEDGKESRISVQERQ
Procedure: PMBC were stained with an anti-human CD19 antibody labelled with PE. […] Lymphocytes were gated based on FSC-A and SSC-A signals.
FACS staining was carried out on 10⁶ human PBMC per well. […] Cells were washed twice with FACS buffer and resuspended in 20 μl of BV421 anti-mouse Ig diluted in FACS buffer and incubated for 30 minutes. Cells were washed twice with FACS buffer and resuspended in 20 μl of PE anti-human CD19 diluted in FACS buffer and incubated for 30 minutes. Cells were washed once with FACS buffer and once with PBS and resuspended in 100 μl of 1% formaldehyde in PBS and incubated for 20 minutes. Cells were washed twice with FACS buffer and resuspended in 200 μl of FACS buffer for analysis.
FACS staining controls included an unstained control, PE anti-human CD19 and BV421 mouse anti-human Ig single stain controls and human IgG1 isotype control. Cell staining was analysed using a FACS Canto II flow cytometer (BD). PMT voltages and gates for analysis were set using the FACS staining controls.

[4] = biological target: T3, recombinant human CD40 extracellular domain with C-terminal 6His tag (Novoprotein) (human); assay: SPR Biacore T200, SVX-3001 amine-coupled to CM5, CD40-6His analyte, 1:1 model; value 1
T3 construct: Bought reagent; also called CD40-6His; CD40-His
T3 sequence (P25942 21-193): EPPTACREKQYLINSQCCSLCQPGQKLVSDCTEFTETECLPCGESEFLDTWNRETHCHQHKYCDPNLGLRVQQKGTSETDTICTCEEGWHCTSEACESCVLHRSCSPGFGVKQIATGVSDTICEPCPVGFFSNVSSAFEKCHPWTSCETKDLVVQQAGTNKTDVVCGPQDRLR
Procedure: as §1, §2, §3

[5] = biological target: T3, recombinant human CD40 extracellular …; assay: SPR Biacore T200, SVX-3001 amine-coupled to CM5, CD40-6His analyte, 1:1 model; value 3
Procedure: as §1, §2, §3

[6] = biological target: T3, recombinant human CD40 extracellular …; assay: SPR Biacore T200, SVX-3001 amine-coupled to CM5, CD40-6His analyte, 1:1 model; average of three
Procedure: as §1, §2, §3

[7] = biological target: T1, recombinant human CD40 extracellular …; assay: SPR Biacore T200, SVX-3001 amine-coupled to CM5, CD40-Fc analyte, 1:1 model; average of three
Procedure: as §1, §2, §3

[8] = biological target: T3, recombinant human CD40 extracellular …; assay: SPR Biacore T200, SVX-3001 amine-coupled to CM5, CD40-6His analyte, 1:1 model; value 2
Procedure: as §1, §2, §3

[9] = biological target: T1, recombinant human CD40 extracellular …; assay: SPR Biacore T200, SVX-3001 amine-coupled to CM5, CD40-Fc analyte, 1:1 model; value 2
Procedure: as §1, §2, §3

T1 sequence (P25942 21-193): as above

B1: Humanized anti-human CD-40 antibody SVX-3001 (antibody, human IgG1, kappa, V domains shown)
VH: QVQLQQSGPGLVKPSQSLSLTCAVSGYSITTNYYWNWIRQAPGKGLEWVGYIRYDGTTYYAPSLKGRFSITRDTSKNQFFLQLTSVTPEDTATYYCARLDYWGQGTLVTVSS
VL: DIVMTQSPLSLSVSLGDRASISCRSSQSLENSNGNTFLNWFQQKPGQSPQLLIYRVSNRFSGVPDRFSGSGSGTDFTLKISRVEAEDEGVYFCLQVTHVPYTFGGGTKLEIKR
notes: Human IgG1 heavy chain constant region and human kappa light chain constant region; made in HEK 293T cells, used as supernatant or Protein G purified; also called humanised agonist anti-human CD40 antibody; Selvax01
A Kd [1] of 0.308 nM, a koff [1] of 0.000203 s⁻¹ and a kon [1] of 661000 M⁻¹ s⁻¹ were found for B1 in this work. For the same binder, the Kd [2] was 0.323 nM, the koff [2] was 0.000232 s⁻¹ and the kon [2] was 717000 M⁻¹ s⁻¹. For the same binder, the binding result [3] was “binds”, the Kd [4] was 5.33 nM and the koff [4] was 0.00381 s⁻¹. For the same binder, the kon [4] was 715000 M⁻¹ s⁻¹, the Kd [5] was 6.51 nM and the koff [5] was 0.00375 s⁻¹. The kon [5] was 576000 M⁻¹ s⁻¹, the Kd [6] was 6.11 nM and the koff [6] was 0.00388 s⁻¹. The kon [6] was 640000 M⁻¹ s⁻¹, the Kd [7] was 0.583 nM and the koff [7] was 0.00033 s⁻¹. It also gave a kon [7] of 621000 M⁻¹ s⁻¹, a Kd [8] of 6.5 nM and a koff [8] of 0.00409 s⁻¹. It also gave a kon [8] of 628000 M⁻¹ s⁻¹, a Kd [9] of 1.12 nM and a koff [9] of 0.000555 s⁻¹. For the same binder, the kon [9] was 497000 M⁻¹ s⁻¹.
